From US20090023895A1 come the findings set out here.

The target in the assay is HLA-A2 molecule (a product of the HLA-A*0201 gene) (human), A*02:0.
For YLEEHPSAG (modifications not checked) [SEQ ID NO: 21 peptide], the -log Kd (Binding Experiment Data) was 5.08 -log Kd.

Consider YLEENPSAG (modifications not checked) [SEQ ID NO: 26 peptide], for which the -log Kd (Binding Experiment Data) is 4.9 -log Kd.

Regarding WMACHSAAF (modifications not checked) [SEQ ID NO: 30 peptide], the -log Kd (Binding Experiment Data) is 5.79 -log Kd.

On to IFLARSALI (modifications not checked) [SEQ ID NO: 35 peptide], for which the -log Kd (Binding Experiment Data) is 5.94 -log Kd.
